Assay results taken from doi:10.1101/154351 (bioRxiv, 2017).

Biological target: TRC35 (residues 23 to 305) (human, UniProt Q7L5D6 23-305)
Assay: crystal structure

Chain of TRC35 (residues 23 to 305) (Q7L5D6 23-305): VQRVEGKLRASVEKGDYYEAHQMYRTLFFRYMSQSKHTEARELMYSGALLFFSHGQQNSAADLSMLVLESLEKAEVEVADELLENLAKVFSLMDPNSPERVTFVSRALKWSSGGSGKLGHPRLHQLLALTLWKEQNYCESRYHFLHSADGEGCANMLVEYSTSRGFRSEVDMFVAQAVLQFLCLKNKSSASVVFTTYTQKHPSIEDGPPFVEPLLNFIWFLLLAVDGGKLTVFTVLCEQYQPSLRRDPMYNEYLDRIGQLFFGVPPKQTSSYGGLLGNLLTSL

binding result: binds
B1: Bag6 minimal TRC35-binding domain containing the NLS (residues 1000-1054) (domain or fragment)
chain: ETEPWAAAVPPEWVPIIQQDIQSQRKVKPQPPLSDAYLSGMPAKRRKTMQGEGPQ
